The values below come from patent US20200216495A1 (ADRX, published 2020).

Several values for one entry are separate records, joined by “and”; a condition that tells them apart may be missing. Identical values can stand only once. Square brackets hold non-standard residues; d marks the D form. Ends that are not written are not given here. dNle = CCCC[C@@H](N)C(=O)O

B1: wwrvklrw (PEPTIDE ID NO: 195) (peptide)
peptide: [dW][dW][dR][dV][dK][dL][dR][dW]
B2: lhlkiryh (PEPTIDE ID NO: 410) (peptide)
peptide: [dL][dH][dL][dK][dI][dR][dY][dH]
B3: wlrvqvklw (PEPTIDE ID NO: 416) (peptide)
peptide: [dW][dL][dR][dV][dQ][dV][dK][dL][dW]
B4: whlrlrhw (PEPTIDE ID NO: 109) (peptide)
peptide: [dW][dH][dL][dR][dL][dR][dH][dW]
B5: rlkirw (PEPTIDE ID NO: 23) (peptide)
peptide: [dR][dL][dK][dI][dR][dW]
B6: lkiriryh (PEPTIDE ID NO: 194) (peptide)
peptide: [dL][dK][dI][dR][dI][dR][dY][dH]
B7: lkiriuy (PEPTIDE ID NO: 251) (peptide)
peptide: [dL][dK][dI][dR][dI][dNle][dY]
B8: fririkhy (PEPTIDE ID NO: 114) (peptide)
peptide: [dF][dR][dI][dR][dI][dK][dH][dY]
B9: fririhhw (PEPTIDE ID NO: 115) (peptide)
peptide: [dF][dR][dI][dR][dI][dH][dH][dW]
B10: wwrfhwr (PEPTIDE ID NO: 43) (peptide)
peptide: [dW][dW][dR][dF][dH][dW][dR]
B11: elkirihy (PEPTIDE ID NO: 253) (peptide)
peptide: [dE][dL][dK][dI][dR][dI][dH][dY]
B12: wrlktrw (PEPTIDE ID NO: 255) (peptide)
peptide: [dW][dR][dL][dK][dT][dR][dW]
B13: wikirw (PEPTIDE ID NO: 21) (peptide)
peptide: [dW][dI][dK][dI][dR][dW]
B14: frlklrhw (PEPTIDE ID NO: 116) (peptide)
peptide: [dF][dR][dL][dK][dL][dR][dH][dW]
B15: lrirlhhf (PEPTIDE ID NO: 146) (peptide)
peptide: [dL][dR][dI][dR][dL][dH][dH][dF]
B16: lkirihyf (PEPTIDE ID NO: 250) (peptide)
peptide: [dL][dK][dI][dR][dI][dH][dY][dF]
B17: wklwlrw (PEPTIDE ID NO: 91) (peptide)
peptide: [dW][dK][dL][dW][dL][dR][dW]
modifications: not fully specified; printed as wklwlrw
B18: ylkirihy (PEPTIDE ID NO: 256) (peptide)
peptide: [dY][dL][dK][dI][dR][dI][dH][dY]
B19: mrlkvrw (PEPTIDE ID NO: 254) (peptide)
peptide: [dM][dR][dL][dK][dV][dR][dW]
B20: frlkirhw (PEPTIDE ID NO: 117) (peptide)
peptide: [dF][dR][dL][dK][dI][dR][dH][dW]
B21: frlrihw (PEPTIDE ID NO: 270) (peptide)
peptide: [dF][dR][dL][dR][dI][dH][dW]
B22: lririkhy (PEPTIDE ID NO: 145) (peptide)
peptide: [dL][dR][dI][dR][dI][dK][dH][dY]

In this experiment the target is Tau40 P301L protein (human). Kind of experiment: cell-based or functional assay.
Take B1: the “IC50, Tau40 assay (ThT)” value is 0.66 µM.

As to B2, the “IC50, Tau40 assay (ThT)” value was 1.16 µM.

For B3, the “IC50, Tau40 assay (ThT)” value was determined as 1.11 µM.

For B4, the “IC50, Tau40 assay (ThT)” value came to 1.19 µM.

For the molecule B5, the “IC50, Tau40 assay (ThT)” value was 1.21 µM and 1.68 µM.

On to B6, for which the “IC50, Tau40 assay (ThT)” value was 0.65 µM and 0.85 µM.

Turning to B7, the “IC50, Tau40 assay (ThT)” value came out at 1.12 µM.

Turning to B8, the “IC50, Tau40 assay (ThT)” value was 1.12 µM and 1.15 µM.

For B9, the “IC50, Tau40 assay (ThT)” value was 1.24 µM and 1.31 µM.

On to B10, for which the “IC50, Tau40 assay (ThT)” value stood at 1.13 µM.

B11: the “IC50, Tau40 assay (ThT)” value stood at 1.16 µM.

B12: the “IC50, Tau40 assay (ThT)” value was 1.17 µM.

Regarding B13, the “IC50, Tau40 assay (ThT)” value was 1.12 µM and 1.21 µM.

As for B14, the “IC50, Tau40 assay (ThT)” value was determined as 1.24 µM.

Turning to B15, the “IC50, Tau40 assay (ThT)” value was 1.22 µM and 1.54 µM.

Take B16: the “IC50, Tau40 assay (ThT)” value was found to be 1.11 µM.

On to B17, for which the “IC50, Tau40 assay (ThT)” value was 0.65 µM and 1.02 µM.

On to B18, for which the “IC50, Tau40 assay (ThT)” value worked out at 1.19 µM.

B19: the “IC50, Tau40 assay (ThT)” value is 1.17 µM and 1.57 µM.

Regarding B20, the “IC50, Tau40 assay (ThT)” value was 1.15 µM and 1.2 µM.

On to B21, for which the “IC50, Tau40 assay (ThT)” value is 1.2 µM and 1.47 µM.

As to B22, the “IC50, Tau40 assay (ThT)” value was 1.19 µM and 1.1 µM.
